# Assay results published in IntAct's records for PubMed 18997771.
# B1: Vascular endothelial growth factor receptor 2 (Mus musculus), P35918 (parent)
# chain: MESKALLAVALWFCVETRAASVGLPGDFLHPPKLSTQKDILTILANTTLQITCRGQRDLDWLWPNAQRDSEERVLVTECGGGDSIFCKTLTIPRVVGNDTGAYKCSYRDVDIASTVYVYVRDYRSPFIASVSDQHGIVYITENKNKTVVIPCRGSISNLNVSLCARYPEKRFVPDGNRISWDSEIGFTLPSYMISYAGMVFCEAKINDETYQSIMYIVVVVGYRIYDVILSPPHEIELSAGEKLVLNCTARTELNVGLDFTWHSPPSKSHHKKIVNRDVKPFPGTVAKMFLSTLTIESVTKSDQGEYTCVASSGRMIKRNRTFVRVHTKPFIAFGSGMKSLVEATVGSQVRIPVKYLSYPAPDIKWYRNGRPIESNYTMIVGDELTIMEVTERDAGNYTVILTNPISMEKQSHMVSLVVNVPPQIGEKALISPMDSYQYGTMQTLTCTVYANPPLHHIQWYWQLEEACSYRPGQTSPYACKEWRHVEDFQGGNKIEVTKNQYALIEGKNKTVSTLVIQAANVSALYKCEAINKAGRGERVISFHVIRGPEITVQPAAQPTEQESVSLLCTADRNTFENLTWYKLGSQATSVHMGESLTPVCKNLDALWKLNGTMFSNSTNDILIVAFQNASLQDQGDYVCSAQDKKTKKRHCLVKQLIILERMAPMITGNLENQTTTIGETIEVTCPASGNPTPHITWFKDNETLVEDSGIVLRDGNRNLTIRRVRKEDGGLYTCQACNVLGCARAETLFIIEGAQEKTNLEVIILVGTAVIAMFFWLLLVIVLRTVKRANEGELKTGYLSIVMDPDELPLDERCERLPYDASKWEFPRDRLKLGKPLGRGAFGQVIEADAFGIDKTATCKTVAVKMLKEGATHSEHRALMSELKILIHIGHHLNVVNLLGACTKPGGPLMVIVEFCKFGNLSTYLRGKRNEFVPYKSKGARFRQGKDYVGELSVDLKRRLDSITSSQSSASSGFVEEKSLSDVEEEEASEELYKDFLTLEHLICYSFQVAKGMEFLASRKCIHRDLAARNILLSEKNVVKICDFGLARDIYKDPDYVRKGDARLPLKWMAPETIFDRVYTIQSDVWSFGVLLWEIFSLGASPYPGVKIDEEFCRRLKEGTRMRAPDYTTPEMYQTMLDCWHEDPNQRPSFSELVEHLGNLLQANAQQDGKDYIVLPMSETLSMEEDSGLSLPTSPVSCMEEEEVCDPKFHYDNTAGISHYLQNSKRKSRPVSVKTFEDIPLEEPEVKVIPDDSQTDSGMVLASEELKTLEDRNKLSPSFGGMMPSKSRESVASEGSNQTSGYQSGYHSDDTDTTVYSSDEAGLLKMVDAAVHADSGTTLRSPPV
# Variants of: B1
# Conditions: with pgfrb_human PDGFRB
row,Variant,effect of a mutation on the interaction
1,Y1052F;Y1057F,disrupting interaction
